Article PMC3317874, “Palmitoylation and membrane cholesterol stabilize μ-opioid receptor homodimerization and G protein coupling” (BMC Cell Biology, 2012)

T1: YFP-fused wild-type μ-opioid receptor (OPRM1) (rat), P33535
T1 chain: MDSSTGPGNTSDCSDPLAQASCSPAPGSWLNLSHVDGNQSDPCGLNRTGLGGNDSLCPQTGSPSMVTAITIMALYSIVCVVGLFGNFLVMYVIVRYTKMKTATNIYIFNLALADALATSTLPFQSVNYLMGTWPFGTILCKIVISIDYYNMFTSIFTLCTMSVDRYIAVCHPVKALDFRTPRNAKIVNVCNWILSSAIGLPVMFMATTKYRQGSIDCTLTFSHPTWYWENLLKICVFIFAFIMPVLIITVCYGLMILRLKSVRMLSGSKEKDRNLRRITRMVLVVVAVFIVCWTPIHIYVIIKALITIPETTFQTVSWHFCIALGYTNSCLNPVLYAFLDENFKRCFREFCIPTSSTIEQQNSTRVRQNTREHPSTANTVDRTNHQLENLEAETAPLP


Experiments:
Assay in all cases: FRET or BRET; CFP and YFP constructs transiently transfected into HEK cells; normalized net FRET analysed on the cell membrane; also after 12 h of 0.5 μM simvastatin, simvastatin with 20 ng/ml cholesterol, or 50 μM 2-BP
[1] = molecular target: T1, YFP-fused wild-type μ-opioid receptor …; details: remark: other sources report otherwise
[2] = molecular target: T2, YFP-fused C170A mutant of μ-opioid receptor (OPRM1) (rat, UniProt P33535 1-398, C170A); details: partners not purified
T2 construct: μ-opioid receptor (OPRM1) with C3.55(170) mutated to alanine; also called YFPC170A; source: HEK cells, transiently transfected, in cells; not shown: YFP, C-terminal, kept

[3] = molecular target: T3, YFP-fused wild-type μ-opioid receptor (OPRM1) (rat, UniProt P33535 1-398, palmitoylated at C3.55(170)); details: partners not purified
T3 construct: μ-opioid receptor (OPRM1), wild type; also called YFPOPRM1; source: HEK cells, transiently transfected, in cells; not shown: YFP, C-terminal, kept

normalized net FRET [1] | normalized net FRET [2] | normalized net FRET [3] | Binder
0.49 | – | – | CFP-fused wild-type μ-opioid receptor (OPRM1), P33535 1-398 (receptor, here or on the partner: palmitoylated at C3.55(170); palmitoylated at C3.55(170)) MDSSTGPGNTSDCSDPLAQASCSPAPGSWLNLSHVDGNQSDPCGLNRTGLGGNDSLCPQTGSPSMVTAITIMALYSIVCVVGLFGNFLVMYVIVRYTKMKTATNIYIFNLALADALATSTLPFQSVNYLMGTWPFGTILCKIVISIDYYNMFTSIFTLCTMSVDRYIAVCHPVKALDFRTPRNAKIVNVCNWILSSAIGLPVMFMATTKYRQGSIDCTLTFSHPTWYWENLLKICVFIFAFIMPVLIITVCYGLMILRLKSVRMLSGSKEKDRNLRRITRMVLVVVAVFIVCWTPIHIYVIIKALITIPETTFQTVSWHFCIALGYTNSCLNPVLYAFLDENFKRCFREFCIPTSSTIEQQNSTRVRQNTREHPSTANTVDRTNHQLENLEAETAPLP
– | 0.3 | – | CFP-fused wild-type μ-opioid receptor (OPRM1) (receptor, rat, UniProt P33535 1-398, looked up, palmitoylated at C3.55(170), μ-opioid receptor (OPRM1), wild type; also called CFPOPRM1; source: HEK cells (also HEKOPRM1 and HEKC170A cells), transiently transfected, in living or fixed cells; not shown: CFP, C-terminal, kept) MDSSTGPGNTSDCSDPLAQASCSPAPGSWLNLSHVDGNQSDPCGLNRTGLGGNDSLCPQTGSPSMVTAITIMALYSIVCVVGLFGNFLVMYVIVRYTKMKTATNIYIFNLALADALATSTLPFQSVNYLMGTWPFGTILCKIVISIDYYNMFTSIFTLCTMSVDRYIAVCHPVKALDFRTPRNAKIVNVCNWILSSAIGLPVMFMATTKYRQGSIDCTLTFSHPTWYWENLLKICVFIFAFIMPVLIITVCYGLMILRLKSVRMLSGSKEKDRNLRRITRMVLVVVAVFIVCWTPIHIYVIIKALITIPETTFQTVSWHFCIALGYTNSCLNPVLYAFLDENFKRCFREFCIPTSSTIEQQNSTRVRQNTREHPSTANTVDRTNHQLENLEAETAPLP
– | 0.07 | 0.27 | CFP-fused C170A mutant of μ-opioid receptor (OPRM1) (receptor, rat, UniProt P33535 1-398, looked up, μ-opioid receptor (OPRM1) with C3.55(170) mutated to alanine; also called CFPC170A; source: HEK cells (also HEKOPRM1 and HEKC170A cells), transiently transfected, in cells; not shown: CFP, C-terminal, kept) MDSSTGPGNTSDCSDPLAQASCSPAPGSWLNLSHVDGNQSDPCGLNRTGLGGNDSLCPQTGSPSMVTAITIMALYSIVCVVGLFGNFLVMYVIVRYTKMKTATNIYIFNLALADALATSTLPFQSVNYLMGTWPFGTILCKIVISIDYYNMFTSIFTLCTMSVDRYIAVAHPVKALDFRTPRNAKIVNVCNWILSSAIGLPVMFMATTKYRQGSIDCTLTFSHPTWYWENLLKICVFIFAFIMPVLIITVCYGLMILRLKSVRMLSGSKEKDRNLRRITRMVLVVVAVFIVCWTPIHIYVIIKALITIPETTFQTVSWHFCIALGYTNSCLNPVLYAFLDENFKRCFREFCIPTSSTIEQQNSTRVRQNTREHPSTANTVDRTNHQLENLEAETAPLP
